Reference: patent publication US20240076403A1

Experiments:
[1] = molecular target: monkey HER2 on HEK293T-monkey-HER2 cells (monkey); experiment: FACS on HEK293T-monkey-HER2 cells
[2] = molecular target: monkey HER2-His protein (monkey); experiment: ELISA, coated monkey HER2-His
[3] = molecular target: human HER2 protein on cells (SK-BR-3 endogenous; CHO-K1-human HER2 recombinant) (human) (UniProt P04626); experiment: FACS on CHO-K1-human HER2 cells
[4] = molecular target: monkey HER2-His protein (Sino Biological, Cat. No. 90295-C08H) (monkey); experiment: ELISA, 10 nM
[5] = molecular target: human HER2-His protein (Acro, Cat. No. HE2-H5225) (human) (UniProt P04626); experiment: ELISA, 10 nM
[6] = molecular target: monkey HER2-His protein (Sino Biological, Cat. No. 90295-C08H) (monkey); experiment: ELISA, 0.01 nM
[7] = molecular target: human HER2-His protein (Acro, Cat. No. HE2-H5225) (human) (UniProt P04626); experiment: ELISA, 0.01 nM
[8] = molecular target: human HER2-His protein (Acro, Cat. No. HE2-H5225) (human) (UniProt P04626); experiment: ELISA, 10 nM; remark: listed apart in the source
[9] = molecular target: monkey HER2-His protein (Sino Biological, Cat. No. 90295-C08H) (monkey); experiment: ELISA, 0.001 nM
[10] = molecular target: human HER2-His protein (Acro, Cat. No. HE2-H5225) (human) (UniProt P04626); experiment: ELISA, 0.001 nM
[11] = molecular target: human HER2-His protein (Acro, Cat. No. HE2-H5225) (human) (UniProt P04626); experiment: ELISA, 1 nM
[12] = molecular target: monkey HER2-His protein (Sino Biological, Cat. No. 90295-C08H) (monkey); experiment: ELISA, 100 nM
[13] = molecular target: human HER2-His protein (Acro, Cat. No. HE2-H5225) (human) (UniProt P04626); experiment: ELISA, 100 nM
[14] = molecular target: human HER2-His protein (Acro, Cat. No. HE2-H5225) (human) (UniProt P04626); experiment: ELISA, 0.001 nM; remark: listed apart in the source
[15] = molecular target: monkey HER2-His protein (Sino Biological, Cat. No. 90295-C08H) (monkey); experiment: ELISA, 0.00001 nM
[16] = molecular target: human HER2-His protein (Acro, Cat. No. HE2-H5225) (human) (UniProt P04626); experiment: ELISA, 0.00001 nM
[17] = molecular target: monkey HER2-His protein (Sino Biological, Cat. No. 90295-C08H) (monkey); experiment: ELISA, 0.0001 nM
[18] = molecular target: human HER2-His protein (Acro, Cat. No. HE2-H5225) (human) (UniProt P04626); experiment: ELISA, 0.0001 nM
[19] = molecular target: human HER2-His protein (Acro, Cat. No. HE2-H5225) (human) (UniProt P04626); experiment: ELISA, 1 nM; remark: listed apart in the source
[20] = molecular target: human HER2 protein on cells (SK-BR-3 endogenous; CHO-K1-human HER2 recombinant) (human) (UniProt P04626); experiment: FACS on SK-BR-3 cells
[21] = molecular target: monkey HER2-His protein (Sino Biological, Cat. No. 90295-C08H) (monkey); experiment: ELISA, 0.1 nM
[22] = molecular target: human HER2-His protein (Acro, Cat. No. HE2-H5225) (human) (UniProt P04626); experiment: ELISA, 0.1 nM

Substance: hIgG1 (antibody)
- Max MFI [1]: 127 MFI
- OD450 nm at 0.0001 nM antibody [2]: 0.06 OD450 nm
- OD450 nm at 0.001 nM antibody [2]: 0.09 OD450 nm
- OD450 nm at 0.01 nM antibody [2]: 0.05 OD450 nm
- OD450 nm at 0.1 nM antibody [2]: 0.06 OD450 nm
- OD450 nm at 1 nM antibody [2]: 0.05 OD450 nm
- OD450 nm at 10 nM antibody [2]: 0.05 OD450 nm
- OD450 nm at 100 nM antibody [2]: 0.09 OD450 nm

Substance: hIgG1 (IgG subtype control) (antibody)
- Max MFI [3]: 71
- OD450 [4]: 0.07
- OD450 [5]: 0.06
- OD450 [6]: 0.08
- OD450 [7]: 0.06
- OD450 [8]: 0.05
- OD450 [9]: 0.05
- OD450 [10]: 0.05
- OD450 [11]: 0.05
- OD450 [12]: 0.12
- OD450 [13]: 0.06
- OD450 [14]: 0.06
- OD450 [15]: 0.05
- OD450 [16]: 0.05
- OD450 [17]: 0.06
- OD450 [18]: 0.06
- OD450 [19]: 0.06
- Max MFI [20]: 73
- OD450 [21]: 0.05
- OD450 [22]: 0.05
